Laboratory results taken from patent publication US20210292423A1.
Residue numbers refer to the chain shown, from its start. Values belong to the binder of their own block, whether it stands above or below them.

Tests used:
[1] = target: Macaca fascicularis CD3ε/δ-Fc fusion protein (Macaca fascicularis) (UniProt Q95LI8); assay: SPR single point, hybridoma supernatant
[2] = target: Macaca fascicularis CD3ε/δ-Fc fusion protein (Macaca fascicularis) (UniProt Q95LI8); assay: SPR Biacore, ratio against human CD3εδ
[3] = target: human CD123 (IL3RA) on cells (human) (UniProt P26951); assay: flow cytometry, TF-1 cells, 3 µg antibody
[4] = target: human CD123 (IL3RA) on cells (human) (UniProt P26951); assay: flow cytometry, THP-1 cells, 3 µg antibody
[5] = target: human CD123 (IL3RA) on cells (human) (UniProt P26951); assay: cell-based or functional assay
[6] = target: Macaca fascicularis CD3ε/δ-Fc fusion protein (Macaca fascicularis) (UniProt Q95LI8); assay: SPR Biacore, Fab

Chain of Macaca fascicularis CD3ε/δ-Fc fusion protein (Macaca fascicularis) (chain, as listed by the source mutant, chain 1 of 2): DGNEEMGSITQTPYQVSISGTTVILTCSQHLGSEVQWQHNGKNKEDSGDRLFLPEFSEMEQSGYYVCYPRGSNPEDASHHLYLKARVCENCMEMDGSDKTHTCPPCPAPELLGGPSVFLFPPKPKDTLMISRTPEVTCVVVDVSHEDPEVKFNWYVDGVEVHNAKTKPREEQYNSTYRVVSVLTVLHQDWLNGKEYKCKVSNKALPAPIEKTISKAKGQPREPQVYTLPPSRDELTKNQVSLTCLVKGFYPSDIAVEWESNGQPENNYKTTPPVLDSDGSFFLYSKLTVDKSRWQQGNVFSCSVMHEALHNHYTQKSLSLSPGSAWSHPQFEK
Chain of Macaca fascicularis CD3ε/δ-Fc fusion protein (Macaca fascicularis) (Q95LI8 22-105, stated change not applied, chain 2 of 2): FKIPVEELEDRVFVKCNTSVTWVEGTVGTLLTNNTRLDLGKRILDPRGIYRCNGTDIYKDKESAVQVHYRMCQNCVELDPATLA
Chain of human CD123 (IL3RA) on cells (human) (P26951 19-378): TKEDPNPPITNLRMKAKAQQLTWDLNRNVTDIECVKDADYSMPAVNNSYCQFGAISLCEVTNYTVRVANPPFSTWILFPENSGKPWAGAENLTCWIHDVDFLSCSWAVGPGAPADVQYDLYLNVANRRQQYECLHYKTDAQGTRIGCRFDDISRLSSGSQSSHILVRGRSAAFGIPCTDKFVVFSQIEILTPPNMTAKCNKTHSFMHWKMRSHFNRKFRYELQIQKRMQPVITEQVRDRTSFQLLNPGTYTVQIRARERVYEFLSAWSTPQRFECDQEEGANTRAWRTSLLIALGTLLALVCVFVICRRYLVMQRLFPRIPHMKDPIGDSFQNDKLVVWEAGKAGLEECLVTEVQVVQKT

B5: CODV-Fab BFX-9F6-G3 × CD3 (bispecific antibody, part only; not given: anti-CD3 arm, linkers, constant domains, V domains shown, not shown: another chain or arm of the molecule; a dimerising Fc or GST; small tags and cut ends)
VL: DIQMTQSPASLSASLGETVTIECRPSEDIHSNVAWYQQKPGNSPQLLIYDASNLADGVPSRFSGSGSGTQYSLKINSLQSEDVASYFCHQYNIYPYTFGSGTKLELK
VH: QVQLQESGPTLVKPGDSVKMSCKASGYTFTDYIIHWVKQSHGKSLEWIGYINPYSDGTNYNEKFKSKATLTVDKSTSTAYMEFSRLTSEDSAIYFCALNYGSYYAMDAWGQGTSVTVSS
% FITC positive Cells [3]: 60.7%
% FITC positive Cells [4]: 99.7%
EC50 [ng/ml] geomean, cytotoxic assay on THP-1 [5]: 13.9 ng/mL

B7: CODV-Fab BFX-3B10-E6 × CD3 (bispecific antibody, part only; not given: CD3 arm, linkers, constant domains, part only)
light, part: DVLMTQTPVSLPVSLGGQVSISCRSSQSLVHSDGDTYLHWYLQKPGQSPQLLIYRVSNRFSGVPDRFSGSGSGTDFTLKISRVEPEDLGLYYCLQTTHFPPWTFGGGTKLEMK
heavy, part: QVQLQQSGPELRRPGSSVRLSCKASGYRIKDFLIHWIKNRPEHGLEWIGWIDPEDGETKYAQKFQTKATLTADTSSNTAYMQLSSLTSEDTATYFCARWGDVYYGLMRGHVMDAWGQGTSVTVSS
EC50 [ng/ml] geomean, cytotoxic assay on THP-1 [5]: 429 ng/mL

B8: CODV-Fab BFX-2B8-F3 × CD3 (bispecific antibody, part only; not given: CD3 arm, linkers, constant domains, part only)
light, part: EIVLTQSPTSMTASPGEQVTITCRASSSINYMHWYQQKPGASPRPWIYETSKLASGVPDRFSGSASGTSYSLTINNMEAEDAATYYCQQWNYPSWTFGGGTKLELK
heavy, part: EVQLVESGGGLVQPGRSLKLSCAASGFTFSDYNMAWVRQAPKKGLEWVATILYDGGRTYYRGSVKGRFTISRDNAKSTLYLRMDSLRSEDTATYYCATHSRGTDYFDYWGQGVMVTVSS
EC50 [ng/ml] geomean, cytotoxic assay on THP-1 [5]: 107 ng/mL

B11: 12D2-E5 Fab (Fab, V domains shown)
VH: EVKLVESGGGLVQPGRSLRLSCAASGFNFYAYWMGWVRQAPGKGLEWIGEIKKDGTTINYTPSLKDRFTISRDNAQNTLYLQMTKLGSEDTALYYCAREERDGYFDYWGQGVMVTVSS
VL: QFVLTQPNSVSTNLGSTVKLSCKRSTGNIGSNYVNWYQQHEGRSPTTMIYRDDKRPDGVPDRFSGSIDRSSNSALLTINNVQTEDEADYFCQSYSSGIVFGGGTKLTVL
Ratio KD(cy)/KD(hu) [2]: 4

B13: CODV-Fab BFX-6B10-E4 × CD3 (bispecific antibody, part only; not given: CD3 arm, linkers, constant domains, part only)
light, part: NIVMTQSPKSMSISVGDRVTMNCKASQTVGNNIAWYQQKPGLSPQLLIDYASNRYTGVPNRFTGGGYGTDFILTINSVQAEDAAFYYCQRMYNSPTFGGGTKLELK
heavy, part: EVQLVESGGGLVQPGRSLKLSCAASGFTFSHYNMAWVRQAPKKGLEWVATITYDDHSTYYRDSVKGRFTISRDTAKSTLYLQMDSLRSEDTATYYCARLVNYAFAYWGQGTLVTVSS
EC50 [ng/ml] geomean, cytotoxic assay on THP-1 [5]: 39.7 ng/mL

B14: CODV-Fab 7G3 × OKT3 (bispecific antibody, part only; not given: OKT3 arm, linkers, constant domains, part only)
light, part: DFVMTQSPSSLTVTAGEKVTMSCKSSQSLLNSGNQKNYLTWYLQKPGQPPKLLIYWASTRESGVPDRFTGSGSGTDFTLTISSVQAEDLAVYYCQNDYSYPYTFGGGTKLEIK
heavy, part: EVQLQQSGPELVKPGASVKMSCKASGYTFTDYYMKWVKQSHGKSLEWIGDIIPSNGATFYNQKFKGKATLTVDRSSSTAYMHLNSLTSEDSAVYYCTRSHLLRASWFAYWGQGTLVTVSA
Activity EC50 [ng/ml], cytotoxic assay on THP-1 with human T cells [5]: 16 ng/mL

Further lines, with some results ahead:

RU at 25 nM [1]: 0.5 RU
B1: 5B1-G2 anti-CD3 antibody (hybridoma supernatant) (antibody, V domains shown)
VH: EVQVVETGGSLVQPGKSLKLTCATSGFSFSNAWMHWVRQSPEKQLEWVAQIKDKANNYATYYAESVKGRFTISRDDSKGSIYLQMNSLKEEDTAVYYCRGLYYGLFPSDYWGQGVMVTVSS
VL: DVVMTQTPVSLSVSLGGQVSISCRSSQSLVHNNGNTYLSWYLLKPGQSPQLLIYKVSNRFSGISDRFSGGGSGTDFTLKISRLEPDDLGIYYCGQGTQYPFTFGSGTKLEIK

Ratio KD(cy)/KD(hu) [2]: 1
B2: 5B1-G2 Fab (Fab, V domains shown)
VH: B1 VH
VL: B1 VL

% FITC positive Cells [3]: 31.1%
% FITC positive Cells [4]: 48.8%
B3: CODV-Fab BFX-9B8-G6 × CD3 (bispecific antibody, part only; not given: anti-CD3 arm, linkers, constant domains, V domains shown, not shown: another chain or arm of the molecule; a dimerising Fc or GST; small tags and cut ends)
VL: DIVMTQSPSSLAVSAGETVTINCKSSQSFLSSGDERNYVAWYQHKPGQSPKLLIYWASTRHSGVPDRFIGSGSGTDFTLTISSVQAEDLAIYYCQQYYDTPLTFGSGTKLEIK
VH: EVKLQESGPSLVQSSQTLSLTCTVSGFSLTSYHIHWVRQPPGKGLEWMGVMWSDGDTSYSSALKSRLSISRDTSQSQVFLKMNSLQTEDTATYYCARGDYSSYIYLWFAYWGQGTLVTVSS
EC50 [ng/ml] geomean, cytotoxic assay on THP-1 [5]: 106 ng/mL

% FITC positive Cells [3]: 50.2%
% FITC positive Cells [4]: 88.7%
B4: CODV-Fab BFX-9D7-C8 × CD3 (bispecific antibody, part only; not given: anti-CD3 arm, linkers, constant domains, V domains shown, not shown: another chain or arm of the molecule; a dimerising Fc or GST; small tags and cut ends)
VL: B3 VL with A15E, E35G, R36K, H44Y, H61Q, S83T
VH: B3 VH with P40T, S60N, D99Y, I104L
EC50 [ng/ml] geomean, cytotoxic assay on THP-1 [5]: 86.3 ng/mL

Kd [6]: 20.4 nM
koff [6]: 0.00486 s⁻¹
kon [6]: 238000 M⁻¹ s⁻¹
B6: humanized 4B4 Fab 4B4_11 (VL1_CM3, VH6_BM2) (Fab, V domains shown)
VH: QVQLVESGGRVVQPGRSLRLTCAASGFTFSNAWMHWVRQAPGKQLEWVAQIKARSNNYATYYAESVKGRFTISRDDSKSTIYLQMNSLRAEDTAVYYCRGTYYASKPFDYWGQGTTVTVSS
VL: DVVMTQSPLSLSVTLGQPVSISCRSSQSLVHDNANTYLSWSLQRPGQSPRVLIYKVSNRFSGVPDRFSGSGSGTDFTLKISRVEAEDVGVYYCGQGTQYPFTFGSGTKLEIK

% FITC positive Cells [3]: 31.6%
% FITC positive Cells [4]: 99%
B9: CODV-Fab BFX-3E3-D3 × CD3 (bispecific antibody, part only; not given: CD3 arm, linkers, constant domains, part only)
light, part: QFVLTQPNSVSTNLGSTVKLSCKRNTGNIGSNYVNWYQQHEGRSPTTMIYRDDKRPDGVPDRFSGSIDRSSNSALLTINNVQTEDEADYFCQSYSSGINIIFGGGTKLTVL
heavy, part: QVQLQESGPGLVQPSQTLSLTCTVSGFSLTTYDVHWVRQPPGKGLEWMGRIQNGGITDYNSALKSRLIISRDTSKSQVFLKMNSVQTEDTAMYFCAKTGSYFYAFDHWGQGTLVTVSS
EC50 [ng/ml] geomean, cytotoxic assay on THP-1 [5]: 12.2 ng/mL

% FITC positive Cells [3]: 9.3%
% FITC positive Cells [4]: 24%
B10: CODV-Fab BFX-2F8-D6 × CD3 (bispecific antibody, part only; not given: anti-CD3 arm, linkers, constant domains, V domains shown, not shown: another chain or arm of the molecule; a dimerising Fc or GST; small tags and cut ends)
VH: QVQLKESGPGLVQPSQTLSLTCTVSGFSLTSYGVSWVRQPPGKGLEWIATISSAGSTYYDLVLKSRLSITRDTSKSQVFLKVHSLQTEDTAIYLCARDAPVFNYGSYNAMDSWGQGTSVTVSS
VL: DIQMTQSPSFLSATVGDRVTINCKASQNINKYLNWYQQKLGEAPKRLIYNTNSLQTGIPSRFSGSGSGTDYTLTISSLQPEDVATYFCLQHKSGLTFGSGTKLEIK

RU at 25 nM [1]: 5 RU
B12: 12D2-E5 anti-CD3 antibody (hybridoma supernatant) (antibody, V domains shown)
VH: B11 VH
VL: B11 VL
